{"source": "the supplement of paper PMC10567573", "parents": {"B1": {"name": "PLK2 (parent)", "chain": "MELLRTITYQPAASTKMCEQALGK"}, "B2": {"name": "NEK8 (parent)", "chain": "YTFGSNQHGQLGTNTRRGSRAPCK"}}, "data": [{"variants_of": "B1", "assay": "protein stability index of a GFP-peptide fusion (GPS, HEK-293T) (PSI 1-6); higher = more stable", "details": "c terminus: a fixed tail appended", "values": [{"variant": "MELLRTIRYQPAASTKMCEQALGK", "note": "[T8R]", "protein stability index": 2.5}, {"variant": "MELLRTIKYQPAASTKMCEQALGK", "note": "[T8K]", "protein stability index": 2.25}, {"variant": "MELLRTIWYQPAASTKMCEQALGK", "note": "[T8W]", "protein stability index": 2.55}, {"variant": "MELLRTITYCPAASTKMCEQALGK", "note": "[Q10C]", "protein stability index": 1.28}, {"variant": "MELLRTITYMPAASTKMCEQALGK", "note": "[Q10M]", "protein stability index": 1.99}, {"variant": "MELLRTITYVPAASTKMCEQALGK", "note": "[Q10V]", "protein stability index": 4.15}, {"variant": "MELLRTITYEPAASTKMCEQALGK", "note": "[Q10E]", "protein stability index": 2.5}, {"variant": "MELLRTITYGPAASTKMCEQALGK", "note": "[Q10G]", "protein stability index": 3.21}, {"variant": "MELLRTITYDPAASTKMCEQALGK", "note": "[Q10D]", "protein stability index": 2.11}, {"variant": "MELLRTITYQPAALTKMCEQALGK", "note": "[S14L]", "protein stability index": 1.64}, {"variant": "MELLRTITYQPAAETKMCEQALGK", "note": "[S14E]", "protein stability index": 2.3}, {"variant": "MELLRTITYQPAAWTKMCEQALGK", "note": "[S14W]", "protein stability index": 3.03}, {"variant": "MELLRTITYQPAASTKMCEQAWGK", "note": "[L22W]", "protein stability index": 2.86}, {"variant": "MELLRTITYQPAASTKMCEQASGK", "note": "[L22S]", "protein stability index": 1.52}, {"variant": "MELLRTITYQPAASTKMCEQANGK", "note": "[L22N]", "protein stability index": 2.31}, {"variant": "MELLRTITYQPAASTKMCEQAMGK", "note": "[L22M]", "protein stability index": 1.57}, {"variant": "MELLRTHTYQPAASTKMCEQALGK", "note": "[I7H]", "protein stability index": 2.8}, {"variant": "MELLRTDTYQPAASTKMCEQALGK", "note": "[I7D]", "protein stability index": 4.13}, {"variant": "MELLRTPTYQPAASTKMCEQALGK", "note": "[I7P]", "protein stability index": 2.12}, {"variant": "MELLRMITYQPAASTKMCEQALGK", "note": "[T6M]", "protein stability index": 1.73}, {"variant": "MELLRNITYQPAASTKMCEQALGK", "note": "[T6N]", "protein stability index": 2.81}, {"variant": "MELLRFITYQPAASTKMCEQALGK", "note": "[T6F]", "protein stability index": 1.68}, {"variant": "MELLRTITYQMAASTKMCEQALGK", "note": "[P11M]", "protein stability index": 2.15}, {"variant": "MELLRTITYQGAASTKMCEQALGK", "note": "[P11G]", "protein stability index": 2.1}, {"variant": "MELGRTITYQPAASTKMCEQALGK", "note": "[L4G]", "protein stability index": 3.76}, {"variant": "MELWRTITYQPAASTKMCEQALGK", "note": "[L4W]", "protein stability index": 1.7}, {"variant": "MELFRTITYQPAASTKMCEQALGK", "note": "[L4F]", "protein stability index": 2.05}, {"variant": "MELLRTITYQPAASTKMAEQALGK", "note": "[C18A]", "protein stability index": 3.42}, {"variant": "MELLRTITYQPAASTKMCEYALGK", "note": "[Q20Y]", "protein stability index": 2.58}, {"variant": "MELLRTITYQPAASTKMCENALGK", "note": "[Q20N]", "protein stability index": 1.69}, {"variant": "MELLRTITYQPAASTKMCEVALGK", "note": "[Q20V]", "protein stability index": 1.6}, {"variant": "MELLRTITYQPAASTKMCEWALGK", "note": "[Q20W]", "protein stability index": 2.02}, {"variant": "MYLLRTITYQPAASTKMCEQALGK", "note": "[E2Y]", "protein stability index": 2.03}, {"variant": "MWLLRTITYQPAASTKMCEQALGK", "note": "[E2W]", "protein stability index": 2.57}, {"variant": "MGLLRTITYQPAASTKMCEQALGK", "note": "[E2G]", "protein stability index": 2.69}, {"variant": "MELLRTITYQPAASTKMCEQELGK", "note": "[A21E]", "protein stability index": 2.46}, {"variant": "MELLRTITYQPAASTKMCEQILGK", "note": "[A21I]", "protein stability index": 3.11}, {"variant": "MELLRTITYQPAASTKMCGQALGK", "note": "[E19G]", "protein stability index": 2.87}, {"variant": "MELLRTITYQPAASTIMCEQALGK", "note": "[K16I]", "protein stability index": 2.61}, {"variant": "MELLRTITYQPAASTDMCEQALGK", "note": "[K16D]", "protein stability index": 2.38}, {"variant": "MELLRTITYQPAASTHMCEQALGK", "note": "[K16H]", "protein stability index": 1.76}, {"variant": "MELLRTITYQPAASTPMCEQALGK", "note": "[K16P]", "protein stability index": 2.02}, {"variant": "MEDLRTITYQPAASTKMCEQALGK", "note": "[L3D]", "protein stability index": 2.46}, {"variant": "MEPLRTITYQPAASTKMCEQALGK", "note": "[L3P]", "protein stability index": 3.11}, {"variant": "MEMLRTITYQPAASTKMCEQALGK", "note": "[L3M]", "protein stability index": 3.04}, {"variant": "MEQLRTITYQPAASTKMCEQALGK", "note": "[L3Q]", "protein stability index": 2.08}, {"variant": "MEGLRTITYQPAASTKMCEQALGK", "note": "[L3G]", "protein stability index": 1.89}, {"variant": "MELLQTITYQPAASTKMCEQALGK", "note": "[R5Q]", "protein stability index": 3.26}, {"variant": "MELLLTITYQPAASTKMCEQALGK", "note": "[R5L]", "protein stability index": 3.55}, {"variant": "MELLVTITYQPAASTKMCEQALGK", "note": "[R5V]", "protein stability index": 4.09}, {"variant": "MELLRTITYQPAASTKMCEQALGD", "note": "[K24D]", "protein stability index": 2.73}, {"variant": "MELLRTITYQPEASTKMCEQALGK", "note": "[A12E]", "protein stability index": 2.58}, {"variant": "MELLRTITGQPAASTKMCEQALGK", "note": "[Y9G]", "protein stability index": 2.46}, {"variant": "MELLRTITCQPAASTKMCEQALGK", "note": "[Y9C]", "protein stability index": 2.38}, {"variant": "MELLRTITPQPAASTKMCEQALGK", "note": "[Y9P]", "protein stability index": 2.04}, {"variant": "MELLRTITMQPAASTKMCEQALGK", "note": "[Y9M]", "protein stability index": 1.89}, {"variant": "MELLRTITKQPAASTKMCEQALGK", "note": "[Y9K]", "protein stability index": 1.64}, {"variant": "MELLRTITYQPAASTKTCEQALGK", "note": "[M17T]", "protein stability index": 2.74}, {"variant": "MELLRTITYQPAASTKQCEQALGK", "note": "[M17Q]", "protein stability index": 2.65}, {"variant": "MELLRTITYQPAASTKFCEQALGK", "note": "[M17F]", "protein stability index": 1.52}, {"variant": "MELLRTITYQPAASTKWCEQALGK", "note": "[M17W]", "protein stability index": 2.46}, {"variant": "KELLRTITYQPAASTKMCEQALGK", "note": "[M1K]", "protein stability index": 3.84}, {"variant": "NELLRTITYQPAASTKMCEQALGK", "note": "[M1N]", "protein stability index": 4.1}, {"variant": "MELLRTITYQPAASTKMCEQALKK", "note": "[G23K]", "protein stability index": 2.94}, {"variant": "MELLRTITYQPAASTKMCEQALEK", "note": "[G23E]", "protein stability index": 2.22}, {"variant": "MELLRTITYQPAASTKMCEQALPK", "note": "[G23P]", "protein stability index": 2.27}, {"variant": "MELLRTITYQPAASEKMCEQALGK", "note": "[T15E]", "protein stability index": 2.53}, {"variant": "MELLRTITYQPAASMKMCEQALGK", "note": "[T15M]", "protein stability index": 2.87}, {"variant": "MELLRTITYQPAASDKMCEQALGK", "note": "[T15D]", "protein stability index": 2.95}, {"variant": "MELLRTITYQPAASIKMCEQALGK", "note": "[T15I]", "protein stability index": 2.39}, {"variant": "MELLRTITYQPAASVKMCEQALGK", "note": "[T15V]", "protein stability index": 1.54}, {"variant": "MELLRTITYQPAMSTKMCEQALGK", "note": "[A13M]", "protein stability index": 2.88}, {"variant": "MELLRTITYQPALSTKMCEQALGK", "note": "[A13L]", "protein stability index": 2.43}, {"variant": "MELLRTITYQPAYSTKMCEQALGK", "note": "[A13Y]", "protein stability index": 2.42}, {"variant": "MELLRTITYQPARSTKMCEQALGK", "note": "[A13R]", "protein stability index": 2.39}]}, {"variants_of": "B2", "assay": "protein stability index of a GFP-peptide fusion (GPS, HEK-293T) (PSI 1-6); higher = more stable", "details": "c terminus: a fixed tail appended", "values": [{"variant": "YTFGSNQHGQLGTNTRRGCRAPCK", "note": "[S19C]", "protein stability index": 3.08}, {"variant": "YTFGSNQHGQLGTNTRRGYRAPCK", "note": "[S19Y]", "protein stability index": 3.52}, {"variant": "YTFGSNQHGQLGTNTRRGKRAPCK", "note": "[S19K]", "protein stability index": 3.77}, {"variant": "YTFGSNQHGQLGTNTRRGPRAPCK", "note": "[S19P]", "protein stability index": 3.89}, {"variant": "YTFGSNQHGQLGTNTRRGERAPCK", "note": "[S19E]", "protein stability index": 3.72}, {"variant": "YTFGSNQHGQLGTNTRRGGRAPCK", "note": "[S19G]", "protein stability index": 3.91}, {"variant": "YTFGSNQHGQLGTNTRRGIRAPCK", "note": "[S19I]", "protein stability index": 3.33}, {"variant": "YTFGSNQHGQLGTNTRRGMRAPCK", "note": "[S19M]", "protein stability index": 4.05}, {"variant": "YTFGSNQHGQLGTNTRRGRRAPCK", "note": "[S19R]", "protein stability index": 3.91}, {"variant": "YTFGSNQHGQLGTNTRRGVRAPCK", "note": "[S19V]", "protein stability index": 3.77}, {"variant": "YTFGSNQHGQLGTNTRRGWRAPCK", "note": "[S19W]", "protein stability index": 2.8}, {"variant": "YTFGSNQHGQLGTNTRRGQRAPCK", "note": "[S19Q]", "protein stability index": 4.02}, {"variant": "YTFGSNQHGQLGTNTRRGHRAPCK", "note": "[S19H]", "protein stability index": 3.95}, {"variant": "YTFGSNQHGQLGTNTRRGLRAPCK", "note": "[S19L]", "protein stability index": 3.82}, {"variant": "YTFGSNQHGQLGTNTRRGNRAPCK", "note": "[S19N]", "protein stability index": 3.86}, {"variant": "YTFGSNQHGQLGTNTRRGTRAPCK", "note": "[S19T]", "protein stability index": 3.81}, {"variant": "YTFGSNQHGQLGTNTRRGFRAPCK", "note": "[S19F]", "protein stability index": 3.03}, {"variant": "YTFGSNQHGQLGTNTRRGDRAPCK", "note": "[S19D]", "protein stability index": 4.18}, {"variant": "YTFGSNQHGQLGTNTRRGSRAPLK", "note": "[C23L]", "protein stability index": 3.91}]}]}
